This is an account of results in patent US20100092461A1, “Remedy For Chemotherapy-Resistant Cancer Containing HLA Class I-Recognizing Antibody as the Active Ingredient and Use of the Same” (CHUGAI SEIYAKU KABUSHIKI KAISHA, priority 2007, published 2010).

One data set deals with parent cell lines. In words: Daunorubicin uptake into cells (accumulation and efflux phase, flow cytometry), parent cell lines. The format is cell-based. The note with it: FIG. 8. The method, then: (§1) To elucidate the mechanism of overcoming drug (chemotherapeutic agent)-resistance using C3B3-DB, MDR1 expression on the cell surface was examined after treating these cells for six hours with C3B3-DB (0.1 μg/mL). […] Furthermore, treatment of these cells with C3B3-DB was followed by culturing these cells in the presence of daunorubicin (0.1 μg/mL, Meiji Seika, Tokyo) and the amount of daunorubicin uptake into cells were compared.
(§2) Specifically, uptake of the pharmaceutical agent into the cells (accumulation phase) was evaluated by culturing the cells for two hours in the presence or absence of C3B3-DB, then adding daunorubicin and culturing the cells for 30 minutes, washing the cells, and then measuring the PE intensity by flow cytometry. The cells were cultured for another 30 minutes to evaluate persistence of the pharmaceutical agent in the cells (efflux phase) in a same manner using flow cytometry.
(In general: In flow cytometry, cells or beads pass a laser one at a time.)

The subject of data set [1] is vincristine-resistant cell lines. In words: Daunorubicin uptake into cells (accumulation and efflux phase, flow cytometry), vincristine-resistant cell lines. The settings on record: FIG. 8. Type of data set: cell-based. The method, then:
as §1, §2

For a further data set, the system named is BLTH. Nature of the data set: Cytotoxic activity, cell growth test using WST-8, BLTH. Type of data set: cell-based. The note with it: FIG. 6. Here is the method: (§3) Acute myeloid leukemia cell line HL60 (American Type Culture Collection, Manassas, Va., USA) and Burkitt's lymphoma cell line BLTH (kindly gifted from Prof Hirose at The University of Tokushima, Br. J. Cancer (1987) 56: 413-417) were cultured in the presence of vincristine to obtain vincristine-resistant cell lines HL60-R and BLTH-R.
(§4) First, these tumor cells were used to examine their susceptibility to C3B3-DB. These tumor cells were cultured in the presence of various concentrations of C3B3-DB and then antitumor activity (cytotoxic activity) of C3B3-DB was measured by cell growth tests using WST-8 (Kishida Chemicals, Osaka).
(§5) In addition, whether or not drug resistance in chemotherapeutic agent-resistant tumor cells can be overcome (improved) was examined by culturing these cells in the presence or absence of C3B3-DB (0.1 μg/mL) for six hours and then adding vincristine.
(Tetrazolium dyes change colour on reduction, which living cells bring about.)

A further data set concerns HL60. In words: Cytotoxic activity, cell growth test using WST-8, HL60. Type of data set: cell-based. The settings on record: FIG. 6. Here is the method:
as §3, §4, §5

The next data set relates to human myeloma cells. The settings on record: various human myeloma cell lines; cited from earlier work.
Another data set deals with activated lymphocytes. The settings on record: cited from earlier work.
For data set [2], the system named is multiple myeloma model mice generated by transplanting human myeloma cell line. The note with it: cited from earlier work.
The conditions of data set [3]: used alone, compared with 2D7 diabody used alone, Patent Document 5; cited from earlier work.
For the next data set, the system named is HL60-R. Nature of the data set: Cytotoxic activity, cell growth test using WST-8, HL60-R. Type of data set: cell-based. The method, then: as §3, §4, §5
The test system of a further data set is BLTH-R. Nature of the data set: Cytotoxic activity, cell growth test using WST-8, BLTH-R. The format is cell-based. Here is the method:
as §3, §4, §5

The subject of a further data set is MDR1. In words: MDR1 expression on the cell surface after C3B3-DB treatment (flow cytometry). The format is cell-based. The settings on record: six hours with C3B3-DB 0.1 μg/mL, chemotherapeutic agent-resistant cell lines, FIG. 7.
Source text: MDR1 expression on the cell surface was examined by flow cytometry using anti-MDR1 antibody (UIC-2, Chemicon, Temecula, Calif., USA) and FITC-labeled goat anti-mouse IgG antibody (Biosource, Camarillo, Calif., USA). Mouse IgG (BD Biosciences, San Jose, Calif., USA) was used for the control antibody.
as §1

Where [4] appears, read: C3B3-DB two hours then daunorubicin.

Regarding `COc1cccc2c1C(=O)c1c(O)c3c(c(O)c1C2=O)C[C@@](O)(C(C)=O)C[C@@H]3O[C@H]1C[C@H](N)[C@H](O)[C@H](C)O1` [daunorubicin, reference compound], the “amount of daunorubicin uptake into cells” value is listed as “a certain amount of daunorubicin was taken up” in the data set with parent cell lines (daunorubicin 0.1 μg/mL, accumulation and efflux phase); “significantly decreased” in data set [1] (daunorubicin 0.1 μg/mL, both phases).

In the case of `CC[C@]1(O)C[C@H]2CN(CCc3c([nH]c4ccccc34)[C@@](C(=O)OC)(c3cc4c(cc3OC)N(C=O)[C@H]3[C@@](O)(C(=O)OC)[C@H](OC(C)=O)[C@]5(CC)C=CCN6CC[C@]43[C@@H]65)C2)C1` [vincristine, reference compound], the “cell injury by vincristine” value is “concentration-dependent cell injury” in the data set with BLTH (with or without C3B3-DB pre-treatment) and “concentration-dependent cell injury” in the data set on HL60 (HL60, with or without C3B3-DB pre-treatment).

B1: C3B3-DB: C3B3 diabody, a low-molecular-weight antibody of the C3B3 antibody recognizing HLA class I (protein)
scFv: EVKLVESEGGLVQPGSSMKLSCTASGFTFSDHYMAWVRQVPEKGLEWVADINYDGSRTYYLDSLKSRFIISRDNGKNILYLQMSSLKSEDTATYYCARDRVRSSYYSNLFAMDYWGQGISVTVSSGGGGSDIQMTQTTSSLSASLGDRVTISCRASQDIANYLNWYQQKPDGTVKLLIYYTSRLHSGVPSRFSGSGSGTDYSLTISNLEPEDIATYYCQQYSKLPYTFGSGTKLEIK
modifications: left off: small tags and cut ends
Regarding B1, the cell death-inducing activity entry in the data set on human myeloma cells and in the data set on activated lymphocytes was “strong cell death-inducing activity” each time. Further, the survival benefit result in [2] was “significant survival benefit”. The “pre-treatment effect on amount of daunorubicin uptake” value in the data set with parent cell lines (setting [4]) is recorded as “not observed”; in [1] (setting [4]), “increased the amount of uptake”. Moreover, the antitumor effects result in data set [3] is “stronger antitumor effects than 2D7 diabody”. The “cytotoxic activity (survival rate of the cells)” value in the data set with HL60-R (C3B3-DB alone, 24 hours, HL60-R compared with parent HL60, FIG. 5) is “cell injury was induced at lower concentrations”; in the data set on BLTH-R (C3B3-DB alone, 24 hours, BLTH-R compared with parent BLTH, FIG. 5), “cell injury was induced at lower concentrations”. For the same molecule, the “cytotoxic activity enhancement of vincristine due to pre-treatment” value is on record as “enhanced” in the data set with HL60-R (HL60-R, C3B3-DB 0.1 μg/mL for six hours then vincristine, FIG. 6); “not observed” in the data set on BLTH (C3B3-DB 0.1 μg/mL for six hours then vincristine); “enhanced” in the data set with BLTH-R (BLTH-R, C3B3-DB 0.1 μg/mL for six hours then vincristine, FIG. 6); “not observed” in the data set with HL60 (HL60, C3B3-DB 0.1 μg/mL for six hours then vincristine). Further, in the data set with MDR1, the “MDR1 expression on the cell surface” value was “decrease in some cells”.
